According to the nanobody polyreactivity screen of Harvey et al. (2022):

assay: yeast display, Sf9 membrane polyspecificity reagent, FACS + sequencing; frameworks hold sequencing errors
How it was run: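 Using colony PCR, genes from sorted yeast display clones were amplified, then sequenced on MiSeq at 2 × 250 and filtered by CDR length. The clones had been stained with 10% biotinylated, detergent-solubilized Sf9 membrane reagent for 1 hour at 4 °C and sorted by FACS into low and high (top ~1%) gates on anti-HA and streptavidin fluorescence. Polyreactivity labels come from the gate of origin.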

Sequence	polyreactivity (PSR sort gate)
QVQLVESGGGLVQAGGSLRLSCAPSGIILYRYAMGWYRQAPGKERELVAAITYSGGSTYYADSVKGRFTISRDNAKNSVYLQMNSLNPEDTAVYYCAAESRAGRYYVSKPSNYWGQGTQVTVSS	high polyreactivity
QVQLVESGGGLVQAGGSLRLSCAPSGIIYRYYGMVWYRQAPGKERELVAVITNSDGSTYYADSVKGRFTISRDNAKNTVYLQQYSLKPEDTAVYYCAARGITSRQRYYWGQGTQVTVSS	low polyreactivity
QVQLVESGGGLVQAGGSLRLSCAPSGITFLANTMGGYRQAPGKERELVATITSSGGSTYYADSVKGRFTISRDNAKNTVYLQMNSLKPEDTAGYYCADSDLRYRGNYVYLPSEYWGQGSQVTVSS	low polyreactivity
QVQLVESGGGLVQAGGSLRLSCAPSGITFRHYALGGYRQAPGKERELVAAITSRGGSTYYADSVKGRFTISRDNAKNTVYLQMNSLKPEDTAVYYCNKRLYYQRWPAAAREYWGQGTQVTVSS	high polyreactivity
QVQLVESGGGLVQAGGSLRLSCAPSGITFWVYVMGWYRQAPGKEREFVADISSGAGTTYYADSVKGRFTISRDNAKNTVYLQMNSLKPEDTAVYYCAARRWWPQWYDYWGQGTQVTVSS	high polyreactivity
QVQLVESGGGLVQAGGSLRLSCAPSGITFYGNDMGWYRQAPGKERELVAAISSGGITNYADSVKGRFTISRDNAKNSVYLQMNSLKPEDTAVYYCAKDLLYYHITPDGYTWYLPEDSWGQGTQVTVSS	low polyreactivity
QVQLVESGGGLVQAGGSLRLSCAPSGRIFAGYAMGWYRQAHGKERELVAAISWRGTSTYYADSVKGRFTISRDNAKNTVYLQMNSLKPEDTAVYYCAARYTKGMYYWGQGTQVTVSS	high polyreactivity
QVQLVESGGGLVQAGGSLRLSCAPSGRIFGAYGMGWYRQAPGKERELVAAISNGGRTSYADSVKGRFTISRDNAKNTVYLQLNSVKPEDTAVYYCAAVYWPWFGAYDYWGHGTQVTVSS	high polyreactivity
QVQLVESGGGLVQAGGSLRLSCAPSGRIFRYNAMGWYRQAPGKERELVAAITSGGSTNYADSVKGRFTISRDNAKNTVYLQMNRLKPEDTAVYYCAVTGYRPYAYRRRYPYDYWGQGTQVTVSS	high polyreactivity
QVQLVESGGGLVQAGGSLRLSCAPSGRNFTYYDMGRYRQAPGKEREFVAVISDNDSSTYADSVKGRFTISPDNAKNTVYLQMNRLKPEDTAVYYCNAYRQYRSWRYDYWGQGTQVTVSS	high polyreactivity
QVQLVESGGGLVQAGGSLRLSCAPSGRTFGYNAMGWYRQAPGKESELVAGISSSDASTYYADSVKGRFTISRDNAKNTVYLQMNSLKPEDTAVYYCAATFGFFYYQYDYWGQGTQVTVSS	low polyreactivity
QVQLVESGGGLVQAGGSLRLSCAPSGRTFGYNGRGWSRQEPGKESELVAAINSGGNTNYADSVKGRFTISRDYAKNTVYLQMNSLKPEDTAVYYCAKYGTLFEPVPNEYDYWGQGTQVTVSS	low polyreactivity
QVQLVESGGGLVQAGGSLRLSCAPSGRTFSVHAMGWYRPARGKGRELVAAISWDGGSTYYADSVKGRFTISRDNANNTVYLQMNSLKPEETAVYYCNKDLYYAYDYWGQGTQVTVSS	low polyreactivity
QVQLVESGGGLVQAGGSLRLSCAPSGRTFYLNAMGWYRPAPGKERELVAAIRFSGGSTYYADSVKGRFTISRDNAKNTVYLQMNSLKPEDTAVYYCNAGPYLSLYPTVSEYGYWGQGTQVTVSS	low polyreactivity
QVQLVESGGGLVQAGGSLRLSCAPSGRTIYHYAMGWYRQAPGKERELVAAITWSGGSTYYADSVKGRVTISRDNAKKTVYLQMNSLKPEDTAVYYWARYPARYGGYYDYDYWGQGTQVTVSS	high polyreactivity
QVQLVESGGGLVQAGGSLRLSCAPSGSIFDVNAMGWYRQSPGKESELVAAISDSGGSTYYADSVKGRFTISRDNAKNTVYLQMNSLKPEDTAVYYCNADWSWYNYYEFDYWGQGTQVTVSS	low polyreactivity
QVQLVESGGGLVQAGGSLRLSCAPSGSIFFPYAIGWYRQAPGKESELVAAISYSGTSTYYADSVKGRFTISRDNAKNTVYLQMNSLIPEDTAVYYCAAEVIGRYIEYYYWGQGTQVTVSS	high polyreactivity
QVQLVESGGGLVQAGGSLRLSCAPSGSIFVYYAMGWYIQAPGKERELVAAITTSGGSTYYADSVKGRFTISRDNAKNTVYLQMNSLKPEDTAVYYCAAELLAWYWSFSVPCPYDYWGQGTQVTVSS	low polyreactivity
QVQLVESGGGLVQAGGSLRLSCAPSGSIYTPYAMGWYRPAPGKLRELVADISRSGSTNYADSVKGRFTISLDNAKKTVYLQMNSLKPEDTAVYYCNADFWWHWGTSYDYWGQGTQVTVSS	high polyreactivity
QVQLVESGGGLVQAGGSLRLSCAPSGSTFDRNDMGWYRQAPGKERELVAAISRVSSTNYADSVKVRFTISRDNAKNTVYLQMNSLKPADTAVYYCAADRAGSIMNYWGQGTQETVSS	low polyreactivity
QVQLVESGGGLVQAGGSLRLSCAPSGSTFFLYVMGWYRQAPGKEREWVAAITSGGRTYYADSVKGRFTISRDNAKNTVYLQMNSLKREDTAVYYCAADVRRVRVGKYDYWGQGPQVTVSS	high polyreactivity
QVQLVESGGGLVQAGGSLRLSCAPSGSTFNNYALGGYRQAPGKERELVAAIRSIGGSTYYADSVKGRFTISRDNAKNTVYLQMNSLKPEDTAVYYCAADYFYLKWYEYWGQGTQVTVSS	high polyreactivity
QVQLVESGGGLVQAGGSLRLSCAPSGSTLTSNAMGWYRQAPGKERELVAASRSGGSTNYADSVKGRFTISRDNAKNTVYLQMNSLKPEDTAVYYCNKDFLWQGYGYSRVSYDYWGQGTQVTVSS	low polyreactivity
QVQLVESGGGLVQAGGSLRLSCASGSTYVYAMGWYRQAPGKERELVATISSTGSTYYADSVKGRFTISRDNAKNTVYLQMNSLKQEDTAVYYCAADVWNNGWIYGSYDEYDYWGQGTQVTVSS	high polyreactivity
QVQLVESGGGLVQAGGSLRLSCASSGIIFYPNAMGWYRQAPAKERELVAAITSDGSTYYADSVKGRFTISRDNAMNTVYLQMNRLKPEDTAVYYCAAWEDYGYDYWGQGTQVTVSS	low polyreactivity
QVQLVESGGGLVQAGGSLRLSCASSGIILYAYAKGWYRQAPGKERELVAAISRSGGRTYYADSVKGRFTISRDKAKNTVYLQMNSLKPEDTAVYYCATVTRYPDGHRFDYWGQGTQVTVSS	high polyreactivity
QVQLVESGGGLVQAGGSLRLSCASSGITFPFYTMGWYRQAPGKERELVAAISSRGTSTYYADSVKGRFTISRDNAKNTVYLQMNSLKPEDTAVYYCKARATPQRAYDSWGQGTQVTVSS	high polyreactivity
QVQLVESGGGLVQAGGSLRLSCASSGITFVRYAMAWYRPAPGKERELVAVISRGGITNYADSVKGRFTISRDNAKNTVYFQMNSLKPEDTGVYYCNREKRIRSSGGLYYWGQGTQVSVSS	high polyreactivity
QVQLVESGGGLVQAGGSLRLSCASSGLIFGANAMGWYRQAPVKARELVAVITSDGSTDYADSVKGRFIISRDNAKNTVYLQMNSLKPEDTAVYYCATTFYLIFGYTYSAYYYWGHGTQVTVSS	high polyreactivity
QVQLVESGGGLVQAGGSLRLSCASSGLIFGRNVMGWYRQAPGKERELVAAISWSGGRTYYADSVKGRFTISRDNAKNTVYLQMNSLKPEDTAVYYCAADDGPGFDYWGQGTQVTVSS	high polyreactivity
